These results are taken from article PMC10786891, “Massively parallel profiling of RNA-targeting CRISPR-Cas13d”.

Usually Kd stands for the equilibrium constant for the complex coming apart.

First the molecules themselves.
T1: EsCas13d, nuclease-dead (Eubacterium siraeum, UniProt B0MS50, R295A;H300A;R849A;H854A)
T1 sequence: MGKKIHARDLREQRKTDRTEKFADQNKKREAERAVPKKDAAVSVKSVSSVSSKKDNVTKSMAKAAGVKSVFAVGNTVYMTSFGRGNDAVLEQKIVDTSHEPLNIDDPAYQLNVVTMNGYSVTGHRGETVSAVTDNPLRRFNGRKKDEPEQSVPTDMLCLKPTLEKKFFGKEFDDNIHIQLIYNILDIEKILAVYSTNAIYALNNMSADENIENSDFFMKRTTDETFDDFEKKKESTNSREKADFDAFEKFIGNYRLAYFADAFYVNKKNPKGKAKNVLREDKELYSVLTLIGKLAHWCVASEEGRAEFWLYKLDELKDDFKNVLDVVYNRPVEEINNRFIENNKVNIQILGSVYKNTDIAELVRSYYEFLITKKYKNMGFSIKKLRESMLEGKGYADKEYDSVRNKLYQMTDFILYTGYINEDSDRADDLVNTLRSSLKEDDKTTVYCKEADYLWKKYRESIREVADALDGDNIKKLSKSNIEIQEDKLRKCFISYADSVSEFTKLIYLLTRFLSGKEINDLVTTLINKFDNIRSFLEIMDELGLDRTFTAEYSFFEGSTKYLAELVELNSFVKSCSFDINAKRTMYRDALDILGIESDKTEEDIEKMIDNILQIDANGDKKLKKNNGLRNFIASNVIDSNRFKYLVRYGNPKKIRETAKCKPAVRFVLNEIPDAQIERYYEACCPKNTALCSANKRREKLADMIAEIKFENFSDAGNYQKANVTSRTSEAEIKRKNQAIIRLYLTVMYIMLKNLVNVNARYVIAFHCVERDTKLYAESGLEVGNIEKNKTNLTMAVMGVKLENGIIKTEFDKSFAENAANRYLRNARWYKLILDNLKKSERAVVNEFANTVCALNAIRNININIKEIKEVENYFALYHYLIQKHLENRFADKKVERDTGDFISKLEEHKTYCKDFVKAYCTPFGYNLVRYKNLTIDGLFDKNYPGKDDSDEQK

B1: target 1 insG 3' of 19,insU 3' of 13 (mixed)
RNA 1: CACCCGUGCAAAAAUGCAGGGGUCUAAAACUGAGCGGAUAACCUCUCUAUGG
RNA 2: GGGAAUGGAUCCACAUCUACGAAUUCGUACCAUGAGAGAGUGUUAUCCGCUCACCGAGAUCGGAAGAGCACACGU
B2: target 1 insG 3' of 16,insG 3' of 4 (mixed)
RNA 1: CACCCGUGCAAAAAUGCAGGGGUCUAAAACUGAGCGGAUAACCUCUCUAUGG
RNA 2: GGGAAUGGAUCCACAUCUACGAAUUCGUACCAUAGAGGAGGUUAUCCGCGUCACCGAGAUCGGAAGAGCACACGU
B3: target 1 G12A,A18U (mixed)
RNA 1: CACCCGUGCAAAAAUGCAGGGGUCUAAAACUGAGCGGAUAACCUCUCUAUGG
RNA 2: GGGAAUGGAUCCACAUCUACGAAUUCGUACCAUUGAGAGAUUAUCCGCUCACCGAGAUCGGAAGAGCACACGU
B4: target 3 insC 3' of 3,insA 3' of 3 (mixed)
RNA 1: CACCCGUGCAAAAUUGCAGGGGUCUAAAACGACCUGAAUAUUUCAGAUCAAA
RNA 2: GGGAAUGGAUCCACAUCUACGAAUUCGUUUUUGAUCUGAAAUAUUCAGGCAUCUGCAGAUCGGAAGAGCACACGU
B5: target 3 insU 3' of 5,insC 3' of 3 (mixed)
RNA 1: CACCCGUGCAAAAUUGCAGGGGUCUAAAACGACCUGAAUAUUUCAGAUCAAA
RNA 2: GGGAAUGGAUCCACAUCUACGAAUUCGUUUUUGAUCUGAAAUAUUCAUGGCUCUGCAGAUCGGAAGAGCACACGU
B6: target 3 insC 3' of 21,insC 3' of 3 (mixed)
RNA 1: CACCCGUGCAAAAUUGCAGGGGUCUAAAACGACCUGAAUAUUUCAGAUCAAA
RNA 2: GGGAAUGGAUCCACAUCUACGAAUUCGUUUUCUGAUCUGAAAUAUUCAGGCUCUGCAGAUCGGAAGAGCACACGU
B7: target 3 insA 3' of 4,insA 3' of 4 (mixed)
RNA 1: CACCCGUGCAAAAUUGCAGGGGUCUAAAACGACCUGAAUAUUUCAGAUCAAA
RNA 2: GGGAAUGGAUCCACAUCUACGAAUUCGUUUUUGAUCUGAAAUAUUCAGAAGUCUGCAGAUCGGAAGAGCACACGU
B8: target 3 insC 3' of 22,insG 3' of 6 (mixed)
RNA 1: CACCCGUGCAAAAUUGCAGGGGUCUAAAACGACCUGAAUAUUUCAGAUCAAA
RNA 2: GGGAAUGGAUCCACAUCUACGAAUUCGUUUCUUGAUCUGAAAUAUUCGAGGUCUGCAGAUCGGAAGAGCACACGU
B9: target 3 C1U,A18G (mixed)
RNA 1: CACCCGUGCAAAAUUGCAGGGGUCUAAAACGACCUGAAUAUUUCAGAUCAAA
RNA 2: GGGAAUGGAUCCACAUCUACGAAUUCGUUUUUGGUCUGAAAUAUUCAGGUUUGCAGAUCGGAAGAGCACACGU
B10: target 3 U2A,C6A (mixed)
RNA 1: CACCCGUGCAAAAUUGCAGGGGUCUAAAACGACCUGAAUAUUUCAGAUCAAA
RNA 2: GGGAAUGGAUCCACAUCUACGAAUUCGUUUUUGAUCUGAAAUAUUAAGGACUGCAGAUCGGAAGAGCACACGU
B11: target 3 insC 3' of 5,insC 3' of 4 (mixed)
RNA 1: CACCCGUGCAAAAUUGCAGGGGUCUAAAACGACCUGAAUAUUUCAGAUCAAA
RNA 2: GGGAAUGGAUCCACAUCUACGAAUUCGUUUUUGAUCUGAAAUAUUCACGCGUCUGCAGAUCGGAAGAGCACACGU
B12: target 3 G3U,U7A (mixed)
RNA 1: CACCCGUGCAAAAUUGCAGGGGUCUAAAACGACCUGAAUAUUUCAGAUCAAA
RNA 2: GGGAAUGGAUCCACAUCUACGAAUUCGUUUUUGAUCUGAAAUAUACAGUUCUGCAGAUCGGAAGAGCACACGU
B13: target 3 U2A,C6U (mixed)
RNA 1: CACCCGUGCAAAAUUGCAGGGGUCUAAAACGACCUGAAUAUUUCAGAUCAAA
RNA 2: GGGAAUGGAUCCACAUCUACGAAUUCGUUUUUGAUCUGAAAUAUUUAGGACUGCAGAUCGGAAGAGCACACGU
B14: target 3 C6G,U7C (mixed)
RNA 1: CACCCGUGCAAAAUUGCAGGGGUCUAAAACGACCUGAAUAUUUCAGAUCAAA
RNA 2: GGGAAUGGAUCCACAUCUACGAAUUCGUUUUUGAUCUGAAAUAUCGAGGUCUGCAGAUCGGAAGAGCACACGU
B15: target 3 A9G,A18G (mixed)
RNA 1: CACCCGUGCAAAAUUGCAGGGGUCUAAAACGACCUGAAUAUUUCAGAUCAAA
RNA 2: GGGAAUGGAUCCACAUCUACGAAUUCGUUUUUGGUCUGAAAUGUUCAGGUCUGCAGAUCGGAAGAGCACACGU
B16: target 3 insC 3' of 7,insC 3' of 3 (mixed)
RNA 1: CACCCGUGCAAAAUUGCAGGGGUCUAAAACGACCUGAAUAUUUCAGAUCAAA
RNA 2: GGGAAUGGAUCCACAUCUACGAAUUCGUUUUUGAUCUGAAAUAUUCCAGGCUCUGCAGAUCGGAAGAGCACACGU
B17: target 3 U2G,U8G (mixed)
RNA 1: CACCCGUGCAAAAUUGCAGGGGUCUAAAACGACCUGAAUAUUUCAGAUCAAA
RNA 2: GGGAAUGGAUCCACAUCUACGAAUUCGUUUUUGAUCUGAAAUAGUCAGGGCUGCAGAUCGGAAGAGCACACGU
B18: target 3 insC 3' of 9,insC 3' of 7 (mixed)
RNA 1: CACCCGUGCAAAAUUGCAGGGGUCUAAAACGACCUGAAUAUUUCAGAUCAAA
RNA 2: GGGAAUGGAUCCACAUCUACGAAUUCGUUUUUGAUCUGAAAUACUUCCAGGUCUGCAGAUCGGAAGAGCACACGU
B19: target 3 C1A,A5C (mixed)
RNA 1: CACCCGUGCAAAAUUGCAGGGGUCUAAAACGACCUGAAUAUUUCAGAUCAAA
RNA 2: GGGAAUGGAUCCACAUCUACGAAUUCGUUUUUGAUCUGAAAUAUUCCGGUAUGCAGAUCGGAAGAGCACACGU
B20: target 3 G4C,A5U (mixed)
RNA 1: CACCCGUGCAAAAUUGCAGGGGUCUAAAACGACCUGAAUAUUUCAGAUCAAA
RNA 2: GGGAAUGGAUCCACAUCUACGAAUUCGUUUUUGAUCUGAAAUAUUCUCGUCUGCAGAUCGGAAGAGCACACGU
B21: target 3 insC 3' of 22,insU 3' of 22 (mixed)
RNA 1: CACCCGUGCAAAAUUGCAGGGGUCUAAAACGACCUGAAUAUUUCAGAUCAAA
RNA 2: GGGAAUGGAUCCACAUCUACGAAUUCGUUUCUUUGAUCUGAAAUAUUCAGGUCUGCAGAUCGGAAGAGCACACGU
B22: target 3 insA 3' of 22,insG 3' of 22 (mixed)
RNA 1: CACCCGUGCAAAAUUGCAGGGGUCUAAAACGACCUGAAUAUUUCAGAUCAAA
RNA 2: GGGAAUGGAUCCACAUCUACGAAUUCGUUUAGUUGAUCUGAAAUAUUCAGGUCUGCAGAUCGGAAGAGCACACGU
B23: target 3 U2G,C6U (mixed)
RNA 1: CACCCGUGCAAAAUUGCAGGGGUCUAAAACGACCUGAAUAUUUCAGAUCAAA
RNA 2: GGGAAUGGAUCCACAUCUACGAAUUCGUUUUUGAUCUGAAAUAUUUAGGGCUGCAGAUCGGAAGAGCACACGU

This data set concerns the target T1, EsCas13d, nuclease-dead. Briefly: crRNA (strand 1, pre-loaded); Mg2+; 40 mM Tris-HCl pH 7.5, 150 mM NaCl, 6 mM MgCl2, 1 mM DTT, 0.1% Tween-20, 0.2 mg/ml BSA; 25 C; 10 min per concentration, then washed. As to conditions: tags: His6-TwinStrep-SUMO cleaved; N-terminal SNAP kept (SNAP-Surface 488); label: 3' end held by stalled T7 RNA polymerase.
B1 displayed a Kd of 51 ± 20 nM.
With B2 the figure was 13.7 ± 0.7 nM; with B3, 25.2 ± 2.7 nM.
With B4 the figure was 9.35 ± 1.15 nM; with B5, 10.9 ± 1.1 nM.
As for B6, the figure is 80 ± 30.5 nM; as for B7, 21.1 ± 3.3 nM.
The molecule B8 registered a Kd of 22.1 ± 2.45 nM.
As for B9, the figure is 43 ± 7 nM; as for B10, 15.6 ± 1.9 nM.
As for B11, the figure is 11.6 ± 0.65 nM; as for B12, 37 ± 4.5 nM; as for B13, 4.55 ± 0.43 nM.
With B14 the figure was 60.5 ± 5 nM; with B15, 26.4 ± 2.95 nM.
B16 registered a Kd of 97 ± 33 nM.
For the molecule B17, binding was characterised by a dissociation constant (Kd) of 47 ± 14.5 nM.
B18 yielded a Kd of 113 ± 50.5 nM.
As for B19, the figure is 58.5 ± 10 nM; as for B20, 42.5 ± 10 nM; as for B21, 19.1 ± 3.15 nM.
As for B22, the figure is 48 ± 7 nM; as for B23, 2.4 ± 0.255 nM.
